According to the Human Domainome abundance scans (Beltran et al. 2025):
± gives the uncertainty stated by the source.

B1: Gamma-crystallin C, residues 4 to 79; numbered along this chain, P07315 (parent)
chain: ITFYEDRAFQGRSYETTTDCPNLQPYFSRCNSIRVESGCWMLYERPNYQGQQYLLRRGEYPDYQQWMGLSDSIRSC

Variants of: B1
Assay: abundance fitness (aPCA) (normalised: wild type 0, dead -1); higher = more abundant; growth selection in yeast, the domain comes from the species named
Conditions: Homo sapiens

Variant | abundance fitness
ITFYEDRAFQGRSYETTTDCPNLQPYFSRCNSIRVESGCWMLYERPNYQGQQYLLRRPEYPDYQQWMGLSDSIRSC [G58P] | -0.674 ± 0.15
ITFYEDRAFQGRSYETTTDCPNLQPYFSRCNSIRVESGCWMLYERPNYQGQQYLLRRTEYPDYQQWMGLSDSIRSC [G58T] | -0.102 ± 0.078
ITFYEDRAFQGTSYETTTDCPNLQPYFSRCNSIRVESGCWMLYERPNYQGQQYLLRRGEYPDYQQWMGLSDSIRSC [R12T] | 0.024 ± 0.082
ITFYEDRAFQGRSYETTTDCPNLQPYFSRCNSIRVESGCWMLYERPNYQGQQYLLRRGEYPDYQQWTGLSDSIRSC [M67T] | -0.018 ± 0.077
ITFYEDRAFQGRSYETTTDCPNLQPYFSRCNSIRVESGCWMLYERPNYQGQQYLLRRGEYPDYQQWMGLWDSIRSC [S70W] | 0.048 ± 0.068
ITFYEDRAFQGRSYETTTDCPNLQPYFSRCNSIRVESGCWMLYERPNYQGQQYLLRRGEYPDYQQWMGLRDSIRSC [S70R] | -0.064 ± 0.067
ITFYEDRAFQGRSYETTTDCPNLQPYFSRCNSIRVESGCWMLYERPNYQGQQYLLRRGEYPDYQQWMGLVDSIRSC [S70V] | 0.075 ± 0.048
ITFYEDRAFQGRSYETTTDCPNLQPYFSRCNSIRVESGCWMLYERPNYQGQQYLLRRGEYPDYQQWMGLSDSPRSC [I73P] | 0.071 ± 0.081
ITFYEDLAFQGRSYETTTDCPNLQPYFSRCNSIRVESGCWMLYERPNYQGQQYLLRRGEYPDYQQWMGLSDSIRSC [R7L] | -0.029 ± 0.12
ITFYEDGAFQGRSYETTTDCPNLQPYFSRCNSIRVESGCWMLYERPNYQGQQYLLRRGEYPDYQQWMGLSDSIRSC [R7G] | -0.02 ± 0.064
ITFYEDRAFQGRSYETTTHCPNLQPYFSRCNSIRVESGCWMLYERPNYQGQQYLLRRGEYPDYQQWMGLSDSIRSC [D19H] | -0.074 ± 0.17
ITFYEDRAFQGRSYETTTDCPNLQPYFSRCNSIRVESWCWMLYERPNYQGQQYLLRRGEYPDYQQWMGLSDSIRSC [G38W] | -0.427 ± 0.29
ITFYEDRAFQGRSYETFTDCPNLQPYFSRCNSIRVESGCWMLYERPNYQGQQYLLRRGEYPDYQQWMGLSDSIRSC [T17F] | -0.152 ± 0.14
ITFYEDRAFQGRSYETTTDCPWLQPYFSRCNSIRVESGCWMLYERPNYQGQQYLLRRGEYPDYQQWMGLSDSIRSC [N22W] | -0.19 ± 0.094
ITFYEDRAFQGRSYETTTDCPNLQPYFSRCNSIRLESGCWMLYERPNYQGQQYLLRRGEYPDYQQWMGLSDSIRSC [V35L] | -0.038 ± 0.085
ITFYEDRAFQGRSYETTTDCPNLQPYFSRCNSIRVESGCWMLYERPNYQGQQYLLRRGEYPDYIQWMGLSDSIRSC [Q64I] | -0.039 ± 0.12
ITFYEDRAFQGRSYETTTDCLNLQPYFSRCNSIRVESGCWMLYERPNYQGQQYLLRRGEYPDYQQWMGLSDSIRSC [P21L] | -0.023 ± 0.059
ITFYEDRAFQGRSYETTTDCPNLQAYFSRCNSIRVESGCWMLYERPNYQGQQYLLRRGEYPDYQQWMGLSDSIRSC [P25A] | -0.002 ± 0.065

Variant | abundance fitness
ITFYEDRAFQGRSYETTTDCPNLQGYFSRCNSIRVESGCWMLYERPNYQGQQYLLRRGEYPDYQQWMGLSDSIRSC [P25G] | 0.032 ± 0.073
ITFYEDRAFQGRSYETTTDCPNLQPYFSRCNSIRVESGCWMLYERPNYQGQQYLLRRGRYPDYQQWMGLSDSIRSC [E59R] | -0.181 ± 0.064
ITFYEDRAFQGRSYETTTDCPNLQPYFSRCNSIRVESGCWMLYERPNYQGQQGLLRRGEYPDYQQWMGLSDSIRSC [Y53G] | -0.143 ± 0.079
ITFYEDRAFQGRSYETTTDCPNLQPYFSRCNSIRVESGLWMLYERPNYQGQQYLLRRGEYPDYQQWMGLSDSIRSC [C39L] | -0.074 ± 0.092
ITFYEDRAFQGRSYETTTDCPNLQPYFSRCNSIRVESGIWMLYERPNYQGQQYLLRRGEYPDYQQWMGLSDSIRSC [C39I] | -0.014 ± 0.27
ITFVEDRAFQGRSYETTTDCPNLQPYFSRCNSIRVESGCWMLYERPNYQGQQYLLRRGEYPDYQQWMGLSDSIRSC [Y4V] | -1.11 ± 0.17
ITFYEDRAFQGRLYETTTDCPNLQPYFSRCNSIRVESGCWMLYERPNYQGQQYLLRRGEYPDYQQWMGLSDSIRSC [S13L] | -0.157 ± 0.091
ITFYEDRAFQGRSYETTTDCPNLQPYFSRCNSIRVESGCWMLQERPNYQGQQYLLRRGEYPDYQQWMGLSDSIRSC [Y43Q] | -0.86 ± 0.24
ITFYEDRAFQGRSYETTTDCPNLQPYFSRCNSIRVESGCWMLLERPNYQGQQYLLRRGEYPDYQQWMGLSDSIRSC [Y43L] | -0.889 ± 0.13
ITFYEDRAFQGRSYETTTDCPNLQPYFSRCNSIRVESGCWMLYERPNYQGQQYLLRRGEYPDYQQWMGLSDDIRSC [S72D] | -0.21 ± 0.3
ITFYEDRAFQGRSYETTTDCPNLQPYFSRCNSIRVESGCWMLYERPNYQGQQYLLRRGEYLDYQQWMGLSDSIRSC [P61L] | -0.064 ± 0.072
ITFYEDRAFQGRSYETTTDCPNLQPYFSRCNSIRVESGCWMLYERPNYQGQQYLLRRGEYKDYQQWMGLSDSIRSC [P61K] | 0 ± 0.11
ITFYEDRAFQGRSYETTTDCPNLQPYFSRCNSIRVESGCWMLYCRPNYQGQQYLLRRGEYPDYQQWMGLSDSIRSC [E44C] | 0.068 ± 0.19
ITFYEDRAFQGRSYETTPDCPNLQPYFSRCNSIRVESGCWMLYERPNYQGQQYLLRRGEYPDYQQWMGLSDSIRSC [T18P] | -0.847 ± 0.25
ITFYEDRAFQGRSYETTTDCPNLQPPFSRCNSIRVESGCWMLYERPNYQGQQYLLRRGEYPDYQQWMGLSDSIRSC [Y26P] | -0.046 ± 0.16
ITFYEDRAFQGRSYETTTDCPNLQPYFSRCNSIRVESGCWMLYERPNYQAQQYLLRRGEYPDYQQWMGLSDSIRSC [G50A] | -0.276 ± 0.17
ITFYEDRAFQGRSYETTTDCPNLQPYFSRCNSIRVESGCWMLYERPNYQGQQYLLRRGEYPDYQQWMGLSNSIRSC [D71N] | -0.007 ± 0.12
ITFYEDRAFQGRSYETTTDCPNLQPYFSRCNSIRVESGCWMLYERPNYQGQQYLLRRGEYPDYQQWMGLSYSIRSC [D71Y] | -0.027 ± 0.081
